Measured values published in article PMC6912793.

Target: recombinant human integrin α5β1 (human) (UniProt P08648)
Sequence of UniProt P08648 (P08648 42-1049, chain 1 of 2): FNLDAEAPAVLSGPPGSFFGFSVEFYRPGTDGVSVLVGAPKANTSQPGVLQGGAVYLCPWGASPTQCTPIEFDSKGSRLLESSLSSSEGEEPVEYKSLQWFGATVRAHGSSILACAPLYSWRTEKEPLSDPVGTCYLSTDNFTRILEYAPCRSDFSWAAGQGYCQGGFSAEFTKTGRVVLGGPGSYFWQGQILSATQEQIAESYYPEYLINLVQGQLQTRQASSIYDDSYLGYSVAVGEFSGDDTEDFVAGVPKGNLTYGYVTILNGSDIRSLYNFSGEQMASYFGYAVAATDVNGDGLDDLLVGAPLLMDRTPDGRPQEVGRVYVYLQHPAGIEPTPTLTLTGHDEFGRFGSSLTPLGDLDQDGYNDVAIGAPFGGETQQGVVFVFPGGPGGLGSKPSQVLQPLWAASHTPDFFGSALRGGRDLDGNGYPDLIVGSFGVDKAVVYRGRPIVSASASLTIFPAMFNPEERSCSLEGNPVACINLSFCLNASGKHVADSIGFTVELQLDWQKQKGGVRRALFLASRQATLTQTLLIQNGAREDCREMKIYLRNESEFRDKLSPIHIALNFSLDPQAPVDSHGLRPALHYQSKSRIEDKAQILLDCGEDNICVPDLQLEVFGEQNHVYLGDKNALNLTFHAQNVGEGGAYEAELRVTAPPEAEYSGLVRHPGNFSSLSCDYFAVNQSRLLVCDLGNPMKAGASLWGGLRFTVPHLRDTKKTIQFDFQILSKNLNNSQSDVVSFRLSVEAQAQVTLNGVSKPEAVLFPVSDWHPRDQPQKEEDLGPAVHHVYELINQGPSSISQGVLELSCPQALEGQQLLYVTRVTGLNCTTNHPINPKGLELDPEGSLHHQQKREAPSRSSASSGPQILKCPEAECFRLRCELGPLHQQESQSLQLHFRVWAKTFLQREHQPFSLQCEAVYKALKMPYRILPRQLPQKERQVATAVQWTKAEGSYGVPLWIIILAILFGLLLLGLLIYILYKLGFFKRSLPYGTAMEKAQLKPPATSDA
Sequence of UniProt P08648 (P05556 21-728, chain 2 of 2, further chain): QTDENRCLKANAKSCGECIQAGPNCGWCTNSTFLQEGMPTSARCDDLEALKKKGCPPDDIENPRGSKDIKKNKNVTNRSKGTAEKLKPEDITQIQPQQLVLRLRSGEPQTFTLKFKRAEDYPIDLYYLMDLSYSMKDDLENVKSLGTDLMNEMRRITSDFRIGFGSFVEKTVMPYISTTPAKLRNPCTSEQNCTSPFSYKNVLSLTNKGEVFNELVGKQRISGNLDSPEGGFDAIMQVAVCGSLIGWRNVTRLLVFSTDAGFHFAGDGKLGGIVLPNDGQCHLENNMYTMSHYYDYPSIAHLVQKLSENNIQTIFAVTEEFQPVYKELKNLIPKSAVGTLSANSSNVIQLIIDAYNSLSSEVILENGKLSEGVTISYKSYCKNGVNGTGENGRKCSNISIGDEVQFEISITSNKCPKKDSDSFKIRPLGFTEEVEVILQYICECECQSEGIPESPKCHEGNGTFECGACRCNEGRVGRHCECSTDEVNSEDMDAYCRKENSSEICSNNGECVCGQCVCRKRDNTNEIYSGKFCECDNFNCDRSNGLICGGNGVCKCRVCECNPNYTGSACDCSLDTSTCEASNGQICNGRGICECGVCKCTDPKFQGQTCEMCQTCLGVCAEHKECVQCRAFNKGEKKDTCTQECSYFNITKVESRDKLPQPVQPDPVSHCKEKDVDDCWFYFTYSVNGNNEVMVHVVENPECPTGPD

reduction of adhesion of HTR8/SVneo cells to native PSG1 (30 μg/mL coated) by a neutralizing antibody to integrin α5, 21% oxygen: 45%
reduction of adhesion of HTR8/SVneo cells to native PSG1 (30 μg/mL coated) by a neutralizing antibody to integrin β1, 21% oxygen: 90%
Substance: native PSG1 (pregnancy-specific glycoprotein 1) purified from the serum of pregnant women (from UniProt P11464 35-419) (natural protein)
